Results taken from paper PMC12753876, “The CRY1-HsF predicted interaction interface serves as a molecular platform for bioengineering or selecting modulating mutants” (Frontiers in Plant Science, 2025).
Blank lines part the entries; values can stand above or below the binder they belong to.

How the values were obtained:
Test in all cases: two-hybrid; CRY1 as prey in pGADT7 (AD), HsF as bait in pGBKT7 (BD), co-transformed into yeast Y187; liquid beta-galactosidase assay with CPRG, Miller units; not detected (ND) if OD578 <0.01 after 3 h of color development
Details in all cases: partners not purified
[1] = target: T1, HsFC1^R129E in pGBKT7 (BD) (Arabidopsis thaliana, UniProt Q9LV52 1-330, R129E)
T1 construct: source: yeast two-hybrid fusion (yeast Y187)

[2] = target: T2, HsFA3^E173A in pGBKT7 (BD) (Arabidopsis thaliana, UniProt Q8GYY1 1-412, E173A)
T2 construct: source: yeast two-hybrid fusion (yeast Y187)

[3] = target: T3, HsFA3^E188A in pGBKT7 (BD) (Arabidopsis thaliana, UniProt Q8GYY1 1-412, E188A)
T3 construct: Not in the list of plasmids of the methods; source: yeast two-hybrid fusion (yeast Y187)

HsFA7a in pGBKT7 (BD) = target: T4, HsFA7a in pGBKT7 (BD) (Arabidopsis thaliana, UniProt Q9SV12 1-272)
T4 construct: also called HsFA7^WT; source: yeast two-hybrid fusion (yeast Y187)

[4] = target: T5, HsFA3^K174A in pGBKT7 (BD) (Arabidopsis thaliana, UniProt Q8GYY1 1-412, K174A)
T5 construct: source: yeast two-hybrid fusion (yeast Y187)

HsFA6a^WT in pGBKT7 (BD) = target: T6, HsFA6a^WT in pGBKT7 (BD) (Arabidopsis thaliana, UniProt Q1PDN3 1-282)
T6 construct: source: yeast two-hybrid fusion (yeast Y187)
T6 sequence (looked up): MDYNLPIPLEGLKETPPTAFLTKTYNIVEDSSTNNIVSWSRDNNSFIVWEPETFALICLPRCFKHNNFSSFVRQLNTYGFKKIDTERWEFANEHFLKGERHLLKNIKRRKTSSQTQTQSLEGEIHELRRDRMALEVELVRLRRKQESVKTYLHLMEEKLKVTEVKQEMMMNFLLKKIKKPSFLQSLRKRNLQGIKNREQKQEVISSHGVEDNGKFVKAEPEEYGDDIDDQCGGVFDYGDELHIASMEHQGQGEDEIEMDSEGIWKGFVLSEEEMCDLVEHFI

[5] = target: T7, HsFA3^E178A in pGBKT7 (BD) (Arabidopsis thaliana, UniProt Q8GYY1 1-412, E178A)
T7 construct: source: yeast two-hybrid fusion (yeast Y187)

HsFA6b^WT in pGBKT7 (BD) = target: T8, HsFA6b^WT in pGBKT7 (BD) (Arabidopsis thaliana, UniProt Q9LUH8 1-406)
T8 construct: source: yeast two-hybrid fusion (yeast Y187)

HsFA3^WT in pGBKT7 (BD) = target: T9, HsFA3^WT in pGBKT7 (BD) (Arabidopsis thaliana, UniProt Q8GYY1 1-412)
T9 construct: also called AtHsFA3; source: yeast two-hybrid fusion (yeast Y187)

HsFA1d^WT in pGBKT7 (BD) = target: T10, HsFA1d^WT in pGBKT7 (BD) (Arabidopsis thaliana, UniProt Q9LQM7 1-485)
T10 construct: source: yeast two-hybrid fusion (yeast Y187)

[6] = target: T11, HsFA3^K177A in pGBKT7 (BD) (Arabidopsis thaliana, UniProt Q8GYY1 1-412, K177A)
T11 construct: source: yeast two-hybrid fusion (yeast Y187)

HsFC1^WT in pGBKT7 (BD) = target: T12, HsFC1^WT in pGBKT7 (BD) (Arabidopsis thaliana, UniProt Q9LV52 1-330)
T12 construct: source: yeast two-hybrid fusion (yeast Y187)
T12 sequence (Q9LV52 whole entry, the tested form may be a part): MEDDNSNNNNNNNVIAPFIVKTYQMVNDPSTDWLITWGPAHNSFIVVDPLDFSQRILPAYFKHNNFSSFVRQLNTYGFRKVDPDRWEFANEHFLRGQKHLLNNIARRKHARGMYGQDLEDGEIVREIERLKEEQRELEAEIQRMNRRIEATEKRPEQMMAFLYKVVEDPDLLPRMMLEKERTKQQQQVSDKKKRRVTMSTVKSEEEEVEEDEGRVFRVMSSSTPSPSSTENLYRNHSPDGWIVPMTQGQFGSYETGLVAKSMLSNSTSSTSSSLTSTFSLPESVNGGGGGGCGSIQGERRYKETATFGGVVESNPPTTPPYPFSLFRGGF

T9 sequence (Q8GYY1 whole entry, the tested form may be a part): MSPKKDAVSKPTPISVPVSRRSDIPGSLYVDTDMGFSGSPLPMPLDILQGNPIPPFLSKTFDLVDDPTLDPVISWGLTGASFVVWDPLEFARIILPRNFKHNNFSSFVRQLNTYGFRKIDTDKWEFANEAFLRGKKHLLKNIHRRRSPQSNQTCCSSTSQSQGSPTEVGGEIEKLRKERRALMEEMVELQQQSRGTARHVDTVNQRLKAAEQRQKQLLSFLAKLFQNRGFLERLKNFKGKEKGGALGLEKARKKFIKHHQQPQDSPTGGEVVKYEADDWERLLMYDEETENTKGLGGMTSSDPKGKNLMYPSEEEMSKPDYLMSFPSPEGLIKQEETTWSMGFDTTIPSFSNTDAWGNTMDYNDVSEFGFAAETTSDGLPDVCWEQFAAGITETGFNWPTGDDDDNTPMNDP
T1 sequence (Q9LV52 whole entry R129E, the tested form may be a part): as the sequence (Q9LV52 whole entry, the tested form may be a part) above, with R129E counted along it
T5 sequence (Q8GYY1 whole entry K174A, the tested form may be a part): as the sequence (Q8GYY1 whole entry, the tested form may be a part) above, with K174A counted along it
T3 sequence (Q8GYY1 whole entry E188A, the tested form may be a part): as the sequence (Q8GYY1 whole entry, the tested form may be a part) above, with E188A counted along it
T7 sequence (Q8GYY1 whole entry E178A, the tested form may be a part): as the sequence (Q8GYY1 whole entry, the tested form may be a part) above, with E178A counted along it
T4 sequence (Q9SV12 whole entry, the tested form may be a part): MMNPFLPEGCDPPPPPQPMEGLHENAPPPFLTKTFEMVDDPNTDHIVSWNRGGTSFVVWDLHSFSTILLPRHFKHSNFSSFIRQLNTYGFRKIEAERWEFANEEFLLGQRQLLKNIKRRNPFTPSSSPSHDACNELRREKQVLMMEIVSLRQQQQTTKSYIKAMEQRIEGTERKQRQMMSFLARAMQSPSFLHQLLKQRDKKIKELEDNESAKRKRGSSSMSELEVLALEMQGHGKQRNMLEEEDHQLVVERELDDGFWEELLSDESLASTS
T2 sequence (Q8GYY1 whole entry E173A, the tested form may be a part): as the sequence (Q8GYY1 whole entry, the tested form may be a part) above, with E173A counted along it
T8 sequence (Q9LUH8 whole entry, the tested form may be a part): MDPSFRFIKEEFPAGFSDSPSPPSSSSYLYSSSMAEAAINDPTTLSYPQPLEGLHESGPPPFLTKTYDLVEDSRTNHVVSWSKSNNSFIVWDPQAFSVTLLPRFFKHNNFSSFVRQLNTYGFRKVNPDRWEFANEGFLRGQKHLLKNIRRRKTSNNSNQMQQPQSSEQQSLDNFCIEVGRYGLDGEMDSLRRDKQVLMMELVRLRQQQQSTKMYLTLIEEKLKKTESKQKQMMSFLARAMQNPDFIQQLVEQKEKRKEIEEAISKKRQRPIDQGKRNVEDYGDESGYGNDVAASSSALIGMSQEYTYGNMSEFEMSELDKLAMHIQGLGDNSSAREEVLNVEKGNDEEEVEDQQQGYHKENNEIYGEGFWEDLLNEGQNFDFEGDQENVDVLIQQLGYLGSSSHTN
T10 sequence (Q9LQM7 whole entry, the tested form may be a part): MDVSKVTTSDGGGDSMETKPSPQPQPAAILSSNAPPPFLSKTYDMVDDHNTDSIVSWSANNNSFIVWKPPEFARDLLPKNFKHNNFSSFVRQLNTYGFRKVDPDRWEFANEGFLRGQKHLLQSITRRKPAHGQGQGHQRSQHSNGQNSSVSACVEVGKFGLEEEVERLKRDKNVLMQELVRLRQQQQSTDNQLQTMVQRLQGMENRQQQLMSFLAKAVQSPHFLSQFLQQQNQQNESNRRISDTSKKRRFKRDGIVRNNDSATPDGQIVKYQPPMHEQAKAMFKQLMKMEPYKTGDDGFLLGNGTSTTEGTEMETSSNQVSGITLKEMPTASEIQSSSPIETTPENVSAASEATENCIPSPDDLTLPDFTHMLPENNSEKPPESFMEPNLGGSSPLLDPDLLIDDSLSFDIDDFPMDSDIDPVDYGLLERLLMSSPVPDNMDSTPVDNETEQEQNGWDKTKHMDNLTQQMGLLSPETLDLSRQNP
T11 sequence (Q8GYY1 whole entry K177A, the tested form may be a part): as the sequence (Q8GYY1 whole entry, the tested form may be a part) above, with K177A counted along it

B1: CRY1^(PHR WT) in pGADT7 (AD) (domain or fragment, Arabidopsis thaliana, UniProt Q43125 1-508, looked up)
chain: MSGSVSGCGSGGCSIVWFRRDLRVEDNPALAAAVRAGPVIALFVWAPEEEGHYHPGRVSRWWLKNSLAQLDSSLRSLGTCLITKRSTDSVASLLDVVKSTGASQIFFNHLYDPLSLVRDHRAKDVLTAQGIAVRSFNADLLYEPWEVTDELGRPFSMFAAFWERCLSMPYDPESPLLPPKKIISGDVSKCVADPLVFEDDSEKGSNALLARAWSPGWSNGDKALTTFINGPLLEYSKNRRKADSATTSFLSPHLHFGEVSVRKVFHLVRIKQVAWANEGNEAGEESVNLFLKSIGLREYSRYISFNHPYSHERPLLGHLKFFPWAVDENYFKAWRQGRTGYPLVDAGMRELWATGWLHDRIRVVVSSFFVKVLQLPWRWGMKYFWDTLLDADLESDALGWQYITGTLPDSREFDRIDNPQFEGYKFDPNGEYVRRWLPELSRLPTDWIHHPWNAPESVLQAAGIELGSNYPLPIVGLDEAKARLHEALSQMWQLEAASRAAIENGSEE
notes: cryptochrome 1 (AtCRY1), Arabidopsis thaliana, PHR domain, residues 1-508; also called CRY1 PHR domain; source: yeast two-hybrid fusion (yeast Y187)
fold increase of Y2H interaction relative to WT [1]: ~10 fold | decrease of Y2H interaction relative to WT [2]: 29% | decrease of Y2H interaction relative to WT [3]: 61% | beta-galactosidase activity (Miller units) (HsFA7a in pGBKT7 (BD)): 25 Miller units | decrease of Y2H interaction relative to WT [4]: 64% | beta-galactosidase activity (Miller units) (HsFA6a^WT in pGBKT7 (BD)): < 0.5 Miller units | fold change of Miller units relative to WT [5]: 2 fold | beta-galactosidase activity (Miller units) (HsFA6b^WT in pGBKT7 (BD)): 45 Miller units | beta-galactosidase activity (Miller units) (HsFA3^WT in pGBKT7 (BD)): 250 Miller units | beta-galactosidase activity (Miller units) (HsFA1d^WT in pGBKT7 (BD)): 7 Miller units | decrease of Y2H interaction relative to WT [6]: 62% | beta-galactosidase activity (Miller units) (HsFC1^WT in pGBKT7 (BD)): < 0.5 Miller units

B3: CRY1^(PHR R435A) in pGADT7 (AD) (domain or fragment, Arabidopsis thaliana, UniProt Q43125 1-508, looked up)
chain: MSGSVSGCGSGGCSIVWFRRDLRVEDNPALAAAVRAGPVIALFVWAPEEEGHYHPGRVSRWWLKNSLAQLDSSLRSLGTCLITKRSTDSVASLLDVVKSTGASQIFFNHLYDPLSLVRDHRAKDVLTAQGIAVRSFNADLLYEPWEVTDELGRPFSMFAAFWERCLSMPYDPESPLLPPKKIISGDVSKCVADPLVFEDDSEKGSNALLARAWSPGWSNGDKALTTFINGPLLEYSKNRRKADSATTSFLSPHLHFGEVSVRKVFHLVRIKQVAWANEGNEAGEESVNLFLKSIGLREYSRYISFNHPYSHERPLLGHLKFFPWAVDENYFKAWRQGRTGYPLVDAGMRELWATGWLHDRIRVVVSSFFVKVLQLPWRWGMKYFWDTLLDADLESDALGWQYITGTLPDSREFDRIDNPQFEGYKFDPNGEYVRAWLPELSRLPTDWIHHPWNAPESVLQAAGIELGSNYPLPIVGLDEAKARLHEALSQMWQLEAASRAAIENGSEE
notes: cryptochrome 1 (AtCRY1), Arabidopsis thaliana, PHR domain, residues 1-508; also called CRY1^R435A; source: yeast two-hybrid fusion (yeast Y187)
decrease of Y2H interaction relative to WT (HsFA3^WT in pGBKT7 (BD)): 12%

The remaining lines, values ahead:

decrease of Y2H interaction relative to WT (HsFA3^WT in pGBKT7 (BD)): 56%
B2: CRY1^(PHR K332A) in pGADT7 (AD) (domain or fragment, Arabidopsis thaliana, UniProt Q43125 1-508, looked up)
chain: MSGSVSGCGSGGCSIVWFRRDLRVEDNPALAAAVRAGPVIALFVWAPEEEGHYHPGRVSRWWLKNSLAQLDSSLRSLGTCLITKRSTDSVASLLDVVKSTGASQIFFNHLYDPLSLVRDHRAKDVLTAQGIAVRSFNADLLYEPWEVTDELGRPFSMFAAFWERCLSMPYDPESPLLPPKKIISGDVSKCVADPLVFEDDSEKGSNALLARAWSPGWSNGDKALTTFINGPLLEYSKNRRKADSATTSFLSPHLHFGEVSVRKVFHLVRIKQVAWANEGNEAGEESVNLFLKSIGLREYSRYISFNHPYSHERPLLGHLKFFPWAVDENYFAAWRQGRTGYPLVDAGMRELWATGWLHDRIRVVVSSFFVKVLQLPWRWGMKYFWDTLLDADLESDALGWQYITGTLPDSREFDRIDNPQFEGYKFDPNGEYVRRWLPELSRLPTDWIHHPWNAPESVLQAAGIELGSNYPLPIVGLDEAKARLHEALSQMWQLEAASRAAIENGSEE
notes: cryptochrome 1 (AtCRY1), Arabidopsis thaliana, PHR domain, residues 1-508; source: yeast two-hybrid fusion (yeast Y187)

increase of Miller units relative to WT (HsFA3^WT in pGBKT7 (BD)): 27%
B4: CRY1^(PHR R211A) in pGADT7 (AD) (domain or fragment, Arabidopsis thaliana, UniProt Q43125 1-508, looked up)
chain: MSGSVSGCGSGGCSIVWFRRDLRVEDNPALAAAVRAGPVIALFVWAPEEEGHYHPGRVSRWWLKNSLAQLDSSLRSLGTCLITKRSTDSVASLLDVVKSTGASQIFFNHLYDPLSLVRDHRAKDVLTAQGIAVRSFNADLLYEPWEVTDELGRPFSMFAAFWERCLSMPYDPESPLLPPKKIISGDVSKCVADPLVFEDDSEKGSNALLAAAWSPGWSNGDKALTTFINGPLLEYSKNRRKADSATTSFLSPHLHFGEVSVRKVFHLVRIKQVAWANEGNEAGEESVNLFLKSIGLREYSRYISFNHPYSHERPLLGHLKFFPWAVDENYFKAWRQGRTGYPLVDAGMRELWATGWLHDRIRVVVSSFFVKVLQLPWRWGMKYFWDTLLDADLESDALGWQYITGTLPDSREFDRIDNPQFEGYKFDPNGEYVRRWLPELSRLPTDWIHHPWNAPESVLQAAGIELGSNYPLPIVGLDEAKARLHEALSQMWQLEAASRAAIENGSEE
notes: cryptochrome 1 (AtCRY1), Arabidopsis thaliana, PHR domain, residues 1-508; also called CRY1^R211A; source: yeast two-hybrid fusion (yeast Y187)

decrease of Y2H interaction relative to WT (HsFA3^WT in pGBKT7 (BD)): 41%
B5: CRY1^(PHR R335A) in pGADT7 (AD) (domain or fragment, Arabidopsis thaliana, UniProt Q43125 1-508, looked up)
chain: MSGSVSGCGSGGCSIVWFRRDLRVEDNPALAAAVRAGPVIALFVWAPEEEGHYHPGRVSRWWLKNSLAQLDSSLRSLGTCLITKRSTDSVASLLDVVKSTGASQIFFNHLYDPLSLVRDHRAKDVLTAQGIAVRSFNADLLYEPWEVTDELGRPFSMFAAFWERCLSMPYDPESPLLPPKKIISGDVSKCVADPLVFEDDSEKGSNALLARAWSPGWSNGDKALTTFINGPLLEYSKNRRKADSATTSFLSPHLHFGEVSVRKVFHLVRIKQVAWANEGNEAGEESVNLFLKSIGLREYSRYISFNHPYSHERPLLGHLKFFPWAVDENYFKAWAQGRTGYPLVDAGMRELWATGWLHDRIRVVVSSFFVKVLQLPWRWGMKYFWDTLLDADLESDALGWQYITGTLPDSREFDRIDNPQFEGYKFDPNGEYVRRWLPELSRLPTDWIHHPWNAPESVLQAAGIELGSNYPLPIVGLDEAKARLHEALSQMWQLEAASRAAIENGSEE
notes: as for B2

decrease of Y2H interaction relative to WT (HsFA3^WT in pGBKT7 (BD)): 51%
B6: CRY1^(PHR W352A) in pGADT7 (AD) (domain or fragment, Arabidopsis thaliana, UniProt Q43125 1-508, looked up)
chain: MSGSVSGCGSGGCSIVWFRRDLRVEDNPALAAAVRAGPVIALFVWAPEEEGHYHPGRVSRWWLKNSLAQLDSSLRSLGTCLITKRSTDSVASLLDVVKSTGASQIFFNHLYDPLSLVRDHRAKDVLTAQGIAVRSFNADLLYEPWEVTDELGRPFSMFAAFWERCLSMPYDPESPLLPPKKIISGDVSKCVADPLVFEDDSEKGSNALLARAWSPGWSNGDKALTTFINGPLLEYSKNRRKADSATTSFLSPHLHFGEVSVRKVFHLVRIKQVAWANEGNEAGEESVNLFLKSIGLREYSRYISFNHPYSHERPLLGHLKFFPWAVDENYFKAWRQGRTGYPLVDAGMRELAATGWLHDRIRVVVSSFFVKVLQLPWRWGMKYFWDTLLDADLESDALGWQYITGTLPDSREFDRIDNPQFEGYKFDPNGEYVRRWLPELSRLPTDWIHHPWNAPESVLQAAGIELGSNYPLPIVGLDEAKARLHEALSQMWQLEAASRAAIENGSEE
notes: cryptochrome 1 (AtCRY1), Arabidopsis thaliana, PHR domain, residues 1-508; also called CRY1^W352A; source: yeast two-hybrid fusion (yeast Y187)
